{"source": "patent US20130101549A1", "about": "(Biogen, published 2013)", "key": {"human LTβR-Ig": {"target": "T1, human LTβR-Ig (human, UniProt P36941 31-227)", "T1 construct": "Expressed and purified in house; also called hLTbR-Ig; human LTBR-Ig", "T1 sequence (P36941 31-227)": "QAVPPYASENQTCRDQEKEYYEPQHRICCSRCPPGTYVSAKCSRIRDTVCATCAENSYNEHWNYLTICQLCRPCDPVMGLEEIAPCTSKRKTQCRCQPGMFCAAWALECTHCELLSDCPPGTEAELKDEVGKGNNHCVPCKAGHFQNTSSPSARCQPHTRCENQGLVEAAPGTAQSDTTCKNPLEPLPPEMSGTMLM", "experiment": "ELISA, huLTBR-Ig coated at 2 ug/ml, HRP goat anti-human kappa; the number is C of the printed 4-P fit (A 0.025, B 0.807, D 1.574, R^2 0.998); Fab-Light is BIIB71F10-132 by paragraph 502", "experimental": "(§1) Human and murine ErbB2-Fc were obtained from R&D Systems. Wells of 96-well plates were coated with 2 ug/ml or 0.2 ug/ml of human or murine HER2-Fc by incubation overnight at 4-8° C. with either of these six proteins (80 ul/well of a 0.2 or 2 ug/ml solution in PBS). Wells were emptied, filled completely with a solution of PBS with 1% BSA (blocking buffer) and incubated at room temperature for 1 hour. Wells were emptied, washed twice PBS containing 0.05% Tween 20 (PBST) and filled with the samples (80 ul/well of 3× dilution series of the standard and supernatants in blocking buffer) prepared in another 96-well plate. After a 2-hour incubation at room temperature, the wells were emptied, washed three times with PBST and filled with a solution of HRP-conjugated goat pAbs anti-human kappa chain (80 ul/well of a 2000-fold dilution in blocking buffer). After 1-hour incubation, the wells were emptied and filled with a solution of HRP substrate prepared freshly. The color was left to develop for 3 minutes and was stopped by addition of an equal volume of 1N H₂SO₄. Absorbance was measured at 450 nm using a Plate Reader (SpectraMax, Molecular Devices). The data was processed and graphs were created using SoftMax Pro software.\n(§2) Human and murine LTBR-Ig were expressed and purified in house."}, "murine LTβR-Ig": {"target": "T2, murine LTβR-Ig (mouse, UniProt P50284 31-223)", "T2 construct": "Expressed and purified in house; also called mLTbR; murine LTBR-Ig", "T2 sequence (P50284 31-223)": "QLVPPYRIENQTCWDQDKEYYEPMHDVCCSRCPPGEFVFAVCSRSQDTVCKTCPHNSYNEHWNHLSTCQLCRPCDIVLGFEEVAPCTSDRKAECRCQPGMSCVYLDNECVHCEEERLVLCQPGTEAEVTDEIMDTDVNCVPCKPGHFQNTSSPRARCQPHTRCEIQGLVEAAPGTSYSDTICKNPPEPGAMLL", "experiment": "ELISA, muLTBR-Ig coated at 0.2 ug/ml, HRP goat anti-human kappa; the number is C of the printed 4-P fit (A 0.064, B 0.872, D 1.453, R^2 0.999); Fab-Light is BIIB71F10-132 by paragraph 502", "experimental": "as §1, §2"}, "murine HER2-Fc": {"target": "T3, murine HER2-Fc (mouse; human, UniProt P70424 23-653)", "T3 construct": "extracellular domain; Bought from R&D Systems; also called murine ErbB2-Fc; not shown: Fc fragment of human IgG1", "T3 sequence (P70424 23-653)": "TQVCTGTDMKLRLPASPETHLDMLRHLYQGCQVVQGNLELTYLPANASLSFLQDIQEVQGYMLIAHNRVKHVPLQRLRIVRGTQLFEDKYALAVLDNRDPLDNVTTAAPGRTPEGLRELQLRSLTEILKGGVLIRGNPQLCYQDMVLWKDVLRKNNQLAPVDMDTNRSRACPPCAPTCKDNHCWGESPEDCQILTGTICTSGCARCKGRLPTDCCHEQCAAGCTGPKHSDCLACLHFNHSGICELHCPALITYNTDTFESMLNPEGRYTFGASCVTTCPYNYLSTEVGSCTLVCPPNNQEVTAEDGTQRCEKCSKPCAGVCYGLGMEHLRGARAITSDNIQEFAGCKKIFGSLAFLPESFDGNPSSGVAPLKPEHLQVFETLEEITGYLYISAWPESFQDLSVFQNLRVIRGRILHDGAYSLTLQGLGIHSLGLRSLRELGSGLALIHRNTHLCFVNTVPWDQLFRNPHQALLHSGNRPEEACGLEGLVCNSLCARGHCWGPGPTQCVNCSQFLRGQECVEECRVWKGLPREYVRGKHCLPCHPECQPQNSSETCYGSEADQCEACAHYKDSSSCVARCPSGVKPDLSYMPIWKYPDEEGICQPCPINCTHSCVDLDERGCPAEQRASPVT", "experiment": "ELISA on coated muHER2-Fc, HRP anti-human kappa; the number is C of the printed 4-P fit (A -0.025, B 0.883, D 0.935, R^2 0.999); x axis: Fab equivalent concentration", "experimental": "as §1, with “Wells” for “Human and murine ErbB2-Fc were obtained from R&D Systems. Wells”, “coated” for “coated with 2 ug/ml or 0.2 ug/ml of human or murine HER2-Fc”, “goat antibodies against human kappa chain” for “either of these six proteins”, “5” for “0.2 or 2”\nHuman and murine HER2-Fc (homodimeric fusion proteins consisting of the extracellular domain of HER2 and the Fc fragment of human IgG1) were obtained from R&D Systems. […]"}}}
{"binder": "71F10 Fab-hLIGHT fusion with the (G4S)4 linker (BIIB71F10-132) (other, Trimer of Fab-LIGHT units; also called 71F10 Fab-(G4S)4-LIGHT) heavy: EVQLLESGGGLVQPGGSLRLSCAASGFTFSSYGMVWVRQAPGKGLEWVSSISSSGGLTWYADSVKGRFTISRDNSKNTLYLQMNSLRAEDTAVYYCASPPGIAVARDYWGQGTLVTVSSASTKGPSVFPLAPSSKSTSGGTAALGCLVKDYFPEPVTVSWNSGALTSGVHTFPAVLQSSGLYSLSSVVTVPSSSLGTQTYICNVNHKPSNTKVDKKVEPKSCDKGGGGSGGGGSGGGGSGGGGSNPAAHLTGANSSLTGSGGPLLWETQLGLAFLRGLSYHDGALVVTKAGYYYIYSKVQLGGVGCPLGLASTITHGLYKRTPRYPEELELLVSQQSPCGRATSSSRVWWDSSFLGGVVHLEAGEEVVVRVLDERLVRLRDGTRSYFGAFMV light: DIQMTQSPSSLSASVGDRVTITCRASQGISNYLAWYQQKPGKVPKLLIYAASTLQSGVPSRFSGSGSGTDFTLTISSLQPEDVATYYCQKYNSALLTFGGGTKVEIKRTVAAPSVFIFPPSDEQLKSGTASVVCLLNNFYPREAKVQWKVDNALQSGNSQESVTEQDSKDSTYSLSSTLTLSKADYEKHKVYACEVTHQGLSSPVTKSFNRGEC", "values": [{"measurement": "EC50", "setting": "human LTβR-Ig", "value": 0.00269, "unit": "µg/mL"}, {"measurement": "EC50", "setting": "murine LTβR-Ig", "value": 0.0588, "unit": "µg/mL"}, {"measurement": "EC50", "setting": "murine HER2-Fc", "value": 0.0122, "unit": "µg/mL"}]}
